Results: patent US20040122214A1 (TRIMERIS, published 2004)
No end group written: not given here.

Assays:
[1] = target: gp41 of HIV-1 strain sensitive to SEQ ID NO:114 peptide (HIV-1); test: cell-based or functional assay
[2] = target: gp41 of HIV-1 strain resistant to SEQ ID NO:114 peptide (HIV-1); test: cell-based or functional assay

Row | Binder | IC50, in vitro infectivity assay [1] | IC90, in vitro infectivity assay [1] | IC50, in vitro infectivity assay [2] | IC90, in vitro infectivity assay [2]
1 | {PEG‑6 diacid}-LTWQEWDREINNYTSLIYSLIEESQNQQEENEQELL (other, not fully specified; also: dimer: two peptides bound to PEG-6 diacid via N-termini) [conjugate comprising two molecules of SEQ ID NO:114 operably bound to PEG 6] | 0.016 µg/mL | 0.169 µg/mL | 0.15 µg/mL | –
2 | LTWQEWDREINNYTSLIYSLIEESQNQQEENEQELL [peptide comprising SEQ ID NO:114, synthetic peptide alone] | 0.005 µg/mL | 0.034 µg/mL | 2.4 µg/mL | > 20 µg/mL
